Measured values reported in patent US20030186841.

Experiments:
Assay in all cases: cell_activity
C7LBDAS (synthetic) = conditions: ligand-dependent, 6x2C7pGL3Luc
2C7LBDAS (synthetic) = conditions: about; estrogen, 6x2C7 SV40 luc, Cos cells
[1] = system: C7LBDAS G400V G400V (human ER numbering) (synthetic); conditions: ligand-dependent, 6x2C7pGL3Luc

GCGTGGGCG (double strand) [C7 site of 6x2C7 luc reporter]
activity (fold induction) (C7LBDAS (synthetic)): 10 | activity (fold induction) (2C7LBDAS (synthetic)): 2 | activity (fold induction) [1]: 420
